Sequences and labels used below:
B1: CPEB3 Ribozyme (parent)
chain: GGGGGCCACAGCAGAAGCGUUCACGUCGCGGCCCCUGUCAGAUUCUGGUGAAUCUGCGAAUUCUGCUGU

In this data set the parent is B1. The data set can be described thus: self-cleavage, relative activity (ratio to wild type); higher = more cleavage; co-transcriptional.
Turning to GAGGGCCACAGCAGAAGCGUUCACGUCGCGGCCCCUGUCAGAUUCUGUUGAAUCUGCGAAUUCUGCUGU, the self-cleavage is 0.215.

Take GAGGGCCACAGCAGAAGCGUUCACGUCGCGGCCCCUGUCAGAUUCUGAUGAAUCUGCGAAUUCUGCUGU: the self-cleavage was determined as 0.213.

GAGGGCCACAGCAGAAGCGUUCACGUCGCGGCCCCUGUCAGAUUCUGCUGAAUCUGCGAAUUCUGCUGU: the self-cleavage was 0.227.

On to GAGGGCCACAGCAGAAGCGUUCACGUCGCGGCCCCUGUCAGAUUCUGGUGAAUCUGCGAAUUCGGCUGU, for which the self-cleavage amounted to 0.0844.

Consider GAGGGCCACAGCAGAAGCGUUCACGUCGCGGCCCCUGUCAGAUUCUGGUGAAUCUGCGAAUUCAGCUGU, for which the self-cleavage was found to be 0.115.

For the variant GAGGGCCACAGCAGAAGCGUUCACGUCGCGGCCCCUGUCAGAUUCUGGUGAAUCUGCGAAUUCCGCUGU, the self-cleavage was 0.0804.

As for GAGGGCCACAGCAGAAGCGUUCACGUCUCGGCCCCUGUCAGAUUCUGGUGAAUCUGCGAAUUCUGCUGU, the self-cleavage stood at 0.0733.

Regarding GAGGGCCACAGCAGAAGCGUUCACGUCACGGCCCCUGUCAGAUUCUGGUGAAUCUGCGAAUUCUGCUGU, the self-cleavage stood at 0.0492.

As to GAGGGCCACAGCAGAAGCGUACACGUCGCGGCCCCUGUCAGAUUCUGGUGAAUCUGCGAAUUCUGCUGU, the self-cleavage was 0.114.

Turning to GAGGGCCACAGCAGAAGCGUCCACGUCGCGGCCCCUGUCAGAUUCUGGUGAAUCUGCGAAUUCUGCUGU, the self-cleavage turned out to be 0.0698.

Take GAGGGCCACAGCAGAAGCGUGCACGUCGCGGCCCCUGUCAGAUUCUGGUGAAUCUGCGAAUUCUGCUGU: the self-cleavage amounted to 0.0545.

Turning to GAGGGCCACAGCAGAAGCGUUCACGUCGCGGCCCCUGUCAAAUUCUGGUGAAUCUGCGAAUUCUGCUGU, the self-cleavage was found to be 0.0631.

On to GAGGGCCACAGCAGAAGCGUUCACGUCGCGGCCCCUGUCAUAUUCUGGUGAAUCUGCGAAUUCUGCUGU, for which the self-cleavage was 0.0833.

On to GAGGGCCACAGCAGAAGCGUUCACGUCGCGGCCCCUGUCAGAAUCUGGUGAAUCUGCGAAUUCUGCUGU, for which the self-cleavage was 0.139.

For GAGGGCCACAGCAGAAGCGUUCACGUCGCGGCCCCUGUCAGAGUCUGGUGAAUCUGCGAAUUCUGCUGU, the self-cleavage is 0.144.

With GAGGGCCACAGCAGAAGCGUUCACGUCGCGGCCCCUGUCAGACUCUGGUGAAUCUGCGAAUUCUGCUGU, the self-cleavage came to 0.123.

As for GAGGGCCACAGCAGAAGCGUUCACGUCGCGGCCCCUGUCAGAUUCUGGUGAAUCUGCGAAUACUGCUGU, the self-cleavage was 0.11.

For GAGGGCCACAGCAGAAGCGUUCACGUCGCGGCCCCUGUCAGAUUCUGGUGAAUCUGCGAAUGCUGCUGU, the self-cleavage is 0.129.

As to GAGGGCCACAGCAGAAGCGUUCACGUCGCGGCCCCUGUCAGAUUCUGGUGAAUCUGCGAAUCCUGCUGU, the self-cleavage stood at 0.146.

GAGGGCCACAGCAAAAGCGUUCACGUCGCGGCCCCUGUCAGAUUCUGGUGAAUCUGCGAAUUCUGCUGU: the self-cleavage was found to be 0.0649.

Regarding GAGGGCCACAGCACAAGCGUUCACGUCGCGGCCCCUGUCAGAUUCUGGUGAAUCUGCGAAUUCUGCUGU, the self-cleavage amounted to 0.075.

As for GAGGGCCACAGCAUAAGCGUUCACGUCGCGGCCCCUGUCAGAUUCUGGUGAAUCUGCGAAUUCUGCUGU, the self-cleavage is 0.0746.

Turning to GAGGGCCACAGCAGAAGCGUUCACUUCGCGGCCCCUGUCAGAUUCUGGUGAAUCUGCGAAUUCUGCUGU, the self-cleavage came out at 0.0625.

For the variant GAGGGCCACAGCAGAAGCGUUCACCUCGCGGCCCCUGUCAGAUUCUGGUGAAUCUGCGAAUUCUGCUGU, the self-cleavage was found to be 0.0386.

As for GAGGGCCACAGCAGAAGCGUUCACGUCGCGGCCCCUGUCAGAUUCUGGGGAAUCUGCGAAUUCUGCUGU, the self-cleavage was found to be 0.149.

As to GAGGGCCACAGCAGAAGCGUUCACGUCGCGGCCCCUGUCAGAUUCUGGCGAAUCUGCGAAUUCUGCUGU, the self-cleavage was 0.21.

With GAGGGCCACAGCAGAAGCGUUCACGUCGCGGCCCCUGUCAGAUUCUGGUGAAUCUGCGAAUUCUGCUCU, the self-cleavage was 0.335.

With GAGGGCCACAGCAGAAGCGUUCACGUCGCGGCCCCUGUCAGAUUCUGGUGAAUCUGCGAAUUCUGCUAU, the self-cleavage turned out to be 0.445.

GAGGGCCACAGCAGAAGCGUUCACGUCGCGGCCCCUGUCAGAUUCUGGUAAAUCUGCGAAUUCUGCUGU: the self-cleavage came to 0.177.

For GAGGGCCACAGCAGAAGCGUUCACGUCGCGGCCCCUGUCAGAUUCUGGUCAAUCUGCGAAUUCUGCUGU, the self-cleavage came out at 0.154.

On to GAGGGCCACAGCAGAAGCGUUCACGUCGCGGCCCCUGUCAGAUUCUGGUUAAUCUGCGAAUUCUGCUGU, for which the self-cleavage amounted to 0.173.

As for GAGGGCCACAGCAGAAGCGUUCACGUCGCGGCCCCUGUCAGAUUCUGGUGAAUCUGCGAAUUCUGCAGU, the self-cleavage was found to be 0.281.

As to GAGGGCCACAGCAGAAGCGUUCACGUCGCGGCCCCUGUCAGAUUCUGGUGAAUCUGCGAAUUCUGCGGU, the self-cleavage was 0.167.

Regarding GAGGGCCACAGCAGAAGCGUUCACGUCGCGGCCCCUGUCAGAUUCUGGUGAAUCUGCGAAUUCUGCCGU, the self-cleavage came out at 0.242.

Turning to GAGGGCCACAGCAGAAGCGUUCACGUCGCGGCCCCUGUCAGAUUCUGGUGAAUCUUCGAAUUCUGCUGU, the self-cleavage was 0.0991.

As for GAGGGCCACAGCAGAAGCGUUCACGUCGCGGCCCCUGUCAGAUUCUGGUGAAUCUCCGAAUUCUGCUGU, the self-cleavage was 0.0906.

Regarding GAGGGCCACAGCAGAAGCGUUCACGUCGCGGCCCCUGUCAGAUUCUGGUGAAUCUACGAAUUCUGCUGU, the self-cleavage was 0.1.

Take GAGGGCCACAGCAGAAGCGUUCACGUCGCGACCCCUGUCAGAUUCUGGUGAAUCUGCGAAUUCUGCUGU: the self-cleavage is 0.0613.

On to GAGGGCCACAGCAGAAGCGUUCACGUCGCGGCCCCUGUCAGAUUCUGGUGAAUCUGCAAAUUCUGCUGU, for which the self-cleavage amounted to 0.0846.

Regarding GAGGGCCACAGCAGAAGCGUUCACGUCGCGGCCCCUGUCAGAUUCUGGUGAAUCUGCUAAUUCUGCUGU, the self-cleavage worked out at 0.221.

As to GAGGGCCACAGCAGAAGCGUUCACGUCGCGGCCCCUGUCAGAUUCUGGUGAAUCUGCCAAUUCUGCUGU, the self-cleavage turned out to be 0.106.

As to GAGGGCCACAGCAGAAGCGUUCACGUCGCGGCCCCAGUCAGAUUCUGGUGAAUCUGCGAAUUCUGCUGU, the self-cleavage is 0.0357.

As to GAGGGCCACAGCAGAAGCGUUCACGUCGCGGCCCCGGUCAGAUUCUGGUGAAUCUGCGAAUUCUGCUGU, the self-cleavage was 0.209.

GAGGGCCACAGCAGAAGCGUUCACGUCGCGGCCCCCGUCAGAUUCUGGUGAAUCUGCGAAUUCUGCUGU: the self-cleavage was 0.129.

GAGGGCCACAGCAGAAGCGUUCACGUCGCGGCCCCUGUCAGAUUCUCGUGAAUCUGCGAAUUCUGCUGU: the self-cleavage was 0.176.

GAGGGCCACAGCAGAAGCGUUCACGUCGCGGCCCCUGUCAGAUUCUAGUGAAUCUGCGAAUUCUGCUGU: the self-cleavage turned out to be 0.189.

In the case of GAGGGCCACAGCAGAAGCGGUCACGUCGCGGCCCCUGUCAGAUUCUGGUGAAUCUGCGAAUUCUGCUGU, the self-cleavage turned out to be 0.0568.

Turning to GAGGGCCACAGCAGAAGCGUUCACGUCGCGGCCCCUGUCAGAUUCUGGUGAAUCUGCGAACUCUGCUGU, the self-cleavage was 0.0999.

Regarding GAGGGCCACAGCAGAAGCGUUCACGUCGCGGCCCCUGUCAGAUUCGGGUGAAUCUGCGAAUUCUGCUGU, the self-cleavage is 0.135.

For GAGGGCCACAGCAGAAGCGUUCACGUCGCGGCCCCUGUCAGAUUCAGGUGAAUCUGCGAAUUCUGCUGU, the self-cleavage came to 0.202.

In the case of GAGGGCCACAGCAGAAGCGUUCACGUCGCGGCCCCUGUCAGAUUCCGGUGAAUCUGCGAAUUCUGCUGU, the self-cleavage stood at 0.13.

Consider GAGGGCCACAGCAGAAGCGUUCACGUCGCGGCCCCUGUCAGAUCCUGGUGAAUCUGCGAAUUCUGCUGU, for which the self-cleavage amounted to 0.123.

For GAGGGCCACAGCAGAAGCGUUCACGUCGCGGCCCCUGUCAGAUUCUGGUGAAUCUGCGAAUUCUUCUGU, the self-cleavage was determined as 0.067.

With GAGGGCCACAGCAGAAGCGUUCACGUCGCGGCCCCUGUCAGAUUCUGGUGAAUCUGCGAAUUCUCCUGU, the self-cleavage turned out to be 0.122.

Take GAGGGCCACAGCAGAAGCGUUCACGUCGCGGCCCCUGUCAGAUUCUGGUGAAUCUGCGAAUUCUGCUGG: the self-cleavage was determined as 0.335.

In the case of GAGGGCCACAGCAGAAGCGUUCACGUCGCGGCCCCUGUCAGAUUCUGGUGAAUCUGCGAAUUCUGCUGA, the self-cleavage was determined as 0.256.

In the case of GAGGGCCACAGCAGAAGCUUUCACGUCGCGGCCCCUGUCAGAUUCUGGUGAAUCUGCGAAUUCUGCUGU, the self-cleavage stood at 0.0445.

In the case of GAGGGCCACAGCAGAAGCAUUCACGUCGCGGCCCCUGUCAGAUUCUGGUGAAUCUGCGAAUUCUGCUGU, the self-cleavage was 0.0283.

Turning to GCGGGCCACAGCAGAAGCGUUCACGUCGCGGCCCCUGUCAGAUUCUGGUGAAUCUGCGAAUUCUGCUGU, the self-cleavage is 0.0678.

For the variant GAGGGCCACAGCAGAAGCGUUCACGGCGCGGCCCCUGUCAGAUUCUGGUGAAUCUGCGAAUUCUGCUGU, the self-cleavage turned out to be 0.0691.

GAGGGCCACAGCAGAAGCGUUCACGACGCGGCCCCUGUCAGAUUCUGGUGAAUCUGCGAAUUCUGCUGU: the self-cleavage turned out to be 0.11.

As for GAGGGCCACAGCAGAAGCGUUCACGCCGCGGCCCCUGUCAGAUUCUGGUGAAUCUGCGAAUUCUGCUGU, the self-cleavage was 0.114.

Take GAGGGCCACAGCAGAAGCGUUCACGUCGCGGCCCCUGUCAGAUUCUGGUGAAGCUGCGAAUUCUGCUGU: the self-cleavage was determined as 0.109.

In the case of GAGGGCCACAGCAGAAGCGUUCACGUCGCGGCCCCUUUCAGAUUCUGGUGAAUCUGCGAAUUCUGCUGU, the self-cleavage was 0.0408.

With GAGGGCCACAGCAGAAGCGUUCACGUCGCGGCCCCUAUCAGAUUCUGGUGAAUCUGCGAAUUCUGCUGU, the self-cleavage came out at 0.0498.

Turning to GAGGGCCACAGCAGAAGCGUUCACGUCGCGGCCCCUCUCAGAUUCUGGUGAAUCUGCGAAUUCUGCUGU, the self-cleavage is 0.0177.

For the variant GAGGGCCACAGCAGAAUCGUUCACGUCGCGGCCCCUGUCAGAUUCUGGUGAAUCUGCGAAUUCUGCUGU, the self-cleavage is 0.0353.

On to GAGGGCCACAGCAGAAACGUUCACGUCGCGGCCCCUGUCAGAUUCUGGUGAAUCUGCGAAUUCUGCUGU, for which the self-cleavage is 0.0268.

For GAGGGCCACAGCAGAAGCGUUCACGUCGCGGCCCCUGCCAGAUUCUGGUGAAUCUGCGAAUUCUGCUGU, the self-cleavage turned out to be 0.117.

Consider GAGGGCCACAGCAGAAGCGUUCACGUCGCGGCCCCUGACAGAUUCUGGUGAAUCUGCGAAUUCUGCUGU, for which the self-cleavage stood at 0.134.

As to GAGGGCCACAGCAGAAGCGUUCACGUCGCGGCCCCUGUCAGAUUCUGGUGAAUCGGCGAAUUCUGCUGU, the self-cleavage was found to be 0.0739.

With GAGGGCCACAGCAGAAGCGUUCACGUCGCGGCCCCUGUCAGAUUCUGGUGAAUCCGCGAAUUCUGCUGU, the self-cleavage worked out at 0.0545.

Turning to GAGGGCCACAGCAGAAGCGUUCACGUCGCGGCCCCUGUCAGAUUCUGGUGAAUCAGCGAAUUCUGCUGU, the self-cleavage was determined as 0.109.

Consider GCGGGCCUCAGCAGAAGCGUUCACGUCGCGGCCCCUGUCAGAUUCUGGUGAAUCUGCGAAUUCUGCUGU, for which the self-cleavage was 0.0675.

With GCGGGCCCCAGCAGAAGCGUUCACGUCGCGGCCCCUGUCAGAUUCUGGUGAAUCUGCGAAUUCUGCUGU, the self-cleavage is 0.039.

Consider GAGGGCCACAGCAGAAGCGUUCACGUCGCUGCCCCUGUCAGAUUCUGGUGAAUCUGCGAAUUCUGCUGU, for which the self-cleavage was 0.058.

Regarding GAGGGCCACAGCAGAAGCGUUCACGUCGCAGCCCCUGUCAGAUUCUGGUGAAUCUGCGAAUUCUGCUGU, the self-cleavage worked out at 0.0606.

Turning to GAGGGCCACAGCAGAAGCGUUCACGUCGCCGCCCCUGUCAGAUUCUGGUGAAUCUGCGAAUUCUGCUGU, the self-cleavage is 0.0605.
